Measurements published in the supplement of paper PMC10567573.

B1: RHOBTB3 (parent)
chain: QLQSMPSRELASMNLDIVDLLKKA

Variants of: B1
Assay: protein stability index of a GFP-peptide fusion (GPS, HEK-293T) (PSI 1-6); higher = more stable
Conditions: c terminus: a fixed tail appended
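Also: lentivirally expressed fusions sorted by FACS into six bins by GFP to DsRed ratio, PSI derived from sequencing read proportions per bin multiplied by bin number.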

| Variant | protein stability index |
| --- | --- |
| QLQSMPSRELASMNLDIVDLLKKW [A24W] | 4.13 |
| QLQSMPSRELASMNLDIVDLLKKN [A24N] | 4.14 |
| QLQSMPSRELASMNLDIVDLLKKH [A24H] | 3.77 |
| QLQSMPSRELASMNLDIVDLLKKK [A24K] | 3.54 |
| QLQSMPSRELASMNLDIVDLMKKA [L21M] | 4.02 |
| QLQSMPSRELASMNLDIVDLTKKA [L21T] | 3.74 |
| QLQSMPSRELASMNLDIVDLGKKA [L21G] | 3.91 |
| QLQSMPSRELASMNLDIVDLPKKA [L21P] | 3.84 |
| QLQSMPSREFASMNLDIVDLLKKA [L10F] | 3.41 |
| QLQSMPSRECASMNLDIVDLLKKA [L10C] | 3.62 |
| QLQSMPSRENASMNLDIVDLLKKA [L10N] | 3.33 |
| QLQSMPSREYASMNLDIVDLLKKA [L10Y] | 3.88 |
| QLQSMPSREEASMNLDIVDLLKKA [L10E] | 3.97 |
| QLQSMPSREVASMNLDIVDLLKKA [L10V] | 3.6 |
| NLQSMPSRELASMNLDIVDLLKKA [Q1N] | 3.65 |
| ALQSMPSRELASMNLDIVDLLKKA [Q1A] | 3.43 |
| YLQSMPSRELASMNLDIVDLLKKA [Q1Y] | 2.98 |
| QLFSMPSRELASMNLDIVDLLKKA [Q3F] | 2.62 |
| QLDSMPSRELASMNLDIVDLLKKA [Q3D] | 3.5 |
| QLWSMPSRELASMNLDIVDLLKKA [Q3W] | 2.48 |
| QLMSMPSRELASMNLDIVDLLKKA [Q3M] | 3.35 |
| QLQSMPSRELASMNLDIVQLLKKA [D19Q] | 3.58 |
| QLQSMPSRELASMNLDIVMLLKKA [D19M] | 2.09 |
| QLQSMPSRELASMNLDIVLLLKKA [D19L] | 1.48 |

| Variant | protein stability index |
| --- | --- |
| QLQSMPSRELASMNLDIVPLLKKA [D19P] | 2.83 |
| QLQSMPSRELASMNPDIVDLLKKA [L15P] | 4.48 |
| QLQSMPSRELASMNIDIVDLLKKA [L15I] | 3.66 |
| QLQSMPSRELASMNTDIVDLLKKA [L15T] | 4.17 |
| QLQSMPSRELASMNWDIVDLLKKA [L15W] | 2.88 |
| QPQSMPSRELASMNLDIVDLLKKA [L2P] | 4.72 |
| QDQSMPSRELASMNLDIVDLLKKA [L2D] | 4 |
| QYQSMPSRELASMNLDIVDLLKKA [L2Y] | 4.34 |
| QRQSMPSRELASMNLDIVDLLKKA [L2R] | 3.47 |
| QLQSMPSRELASMNLDIVDLLTKA [K22T] | 3.74 |
| QLQSMPSRELASMNLDIVDLLFKA [K22F] | 2.29 |
| QLQSMPSRELASMNLDIVDLLLKA [K22L] | 2.07 |
| QLQSMPSRELASMNLDIVDLLDKA [K22D] | 4.32 |
| QLQSMPSRELASMNLDIVDLLRKA [K22R] | 3.21 |
| QLQSMPSRELASMYLDIVDLLKKA [N14Y] | 2.68 |
| QLQSMPSRELASMLLDIVDLLKKA [N14L] | 2.6 |
| QLQSMPSRELASMRLDIVDLLKKA [N14R] | 2.58 |
| QLQSMPSRELASMHLDIVDLLKKA [N14H] | 3.01 |
| QLQSMPSRELASMQLDIVDLLKKA [N14Q] | 3.3 |
| QLQSMPSRELASMTLDIVDLLKKA [N14T] | 3.27 |
| QLQSMPSRELASMWLDIVDLLKKA [N14W] | 2.37 |
| QLQSMPSRELASMMLDIVDLLKKA [N14M] | 2.63 |
| QLQSMPSRELAMMNLDIVDLLKKA [S12M] | 3.24 |
| QLQSMPSRELADMNLDIVDLLKKA [S12D] | 3.68 |

| Variant | protein stability index |
| --- | --- |
| QLQSMPSRELAWMNLDIVDLLKKA [S12W] | 2.5 |
| QLQSMPSRELPSMNLDIVDLLKKA [A11P] | 3.27 |
| QLQSMPSRELGSMNLDIVDLLKKA [A11G] | 3.19 |
| QLQSMPSRELVSMNLDIVDLLKKA [A11V] | 3.27 |
| QLQSMPSRELRSMNLDIVDLLKKA [A11R] | 2.81 |
| QLQSMPSRELKSMNLDIVDLLKKA [A11K] | 2.72 |
| QLQSMPSRELASMNLDIVDLLKSA [K23S] | 3.05 |
| QLQSMPSRELASMNLDIVDLLKNA [K23N] | 3.97 |
| QLQSMPSRELASMNLDIVDLLKPA [K23P] | 3.22 |
| QLQSMPSRELASMNLDIVDLLKTA [K23T] | 3.4 |
| QLQSMPSRELASMNLDIVDLLKGA [K23G] | 3.16 |
| QLQSMPSRELASMNLDIVDLLKMA [K23M] | 2.32 |
| QLQSMPSRELASMNLDIVDLLKQA [K23Q] | 3.36 |
| QLQSMPSRELASMNLDIVDLLKYA [K23Y] | 2.71 |
| QLQSMPSRELASDNLDIVDLLKKA [M13D] | 3.96 |
| QLQSMPSRELASGNLDIVDLLKKA [M13G] | 3.76 |
| QLQSMPSRELASINLDIVDLLKKA [M13I] | 2.39 |
| QLQSMPSRELASMNLDWVDLLKKA [I17W] | 3.45 |
| QLQSMPSRELASMNLDQVDLLKKA [I17Q] | 4.55 |
| QLQSMPSRELASMNLDFVDLLKKA [I17F] | 3.63 |
| QLQSMPSRELASMNLDKVDLLKKA [I17K] | 3.23 |
| QLQSMPSRELASMNLDLVDLLKKA [I17L] | 3.34 |
| QLQSMPSRELASMNLDCVDLLKKA [I17C] | 3.87 |
| QLQSMPSRELASMNLDHVDLLKKA [I17H] | 3.94 |

| Variant | protein stability index |
| --- | --- |
| QLQSMPSRELASMNLDIVDHLKKA [L20H] | 3.63 |
| QLQSMPSRELASMNLDIVDELKKA [L20E] | 4.84 |
| QLQSMPSRELASMNLDIVDILKKA [L20I] | 3.42 |
| QLQSMPSRELASMNLDIVDALKKA [L20A] | 3.52 |
| QLQSMPSRELASMNLDIVDFLKKA [L20F] | 3.42 |
| QLQSMVSRELASMNLDIVDLLKKA [P6V] | 2.14 |
| QLQSMLSRELASMNLDIVDLLKKA [P6L] | 2.2 |
| QLQSMRSRELASMNLDIVDLLKKA [P6R] | 3.25 |
| QLQSMQSRELASMNLDIVDLLKKA [P6Q] | 3 |
| QLQSMPSRELASMNLDIADLLKKA [V18A] | 4.01 |
| QLQSMPSRELASMNLDINDLLKKA [V18N] | 3.9 |
| QLQSMPSRELASMNLDILDLLKKA [V18L] | 3.37 |
| QLQSMPSRELASMNLDIRDLLKKA [V18R] | 2.73 |
| QLQSMPSRELASMNLDIWDLLKKA [V18W] | 2.61 |
| QLQSDPSRELASMNLDIVDLLKKA [M5D] | 3.78 |
| QLQSVPSRELASMNLDIVDLLKKA [M5V] | 3.32 |
| QLQSPPSRELASMNLDIVDLLKKA [M5P] | 3.54 |
| QLQSLPSRELASMNLDIVDLLKKA [M5L] | 3.88 |
| QLQSCPSRELASMNLDIVDLLKKA [M5C] | 3.23 |
| QLQSQPSRELASMNLDIVDLLKKA [M5Q] | 3.69 |
| QLQSAPSRELASMNLDIVDLLKKA [M5A] | 3.04 |
| QLQSWPSRELASMNLDIVDLLKKA [M5W] | 2.07 |
